target: T1, CD3 epsilon homodimer protein (UniProt P07766 23-126); assay: SPR, antibody over immobilised CD3e homodimer;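 also: SPR at 25 °C with CD3 epsilon homodimer amine-coupled to a CM4 sensor chip and antibody flowed over as analyte in HBS-EP+ running buffer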
T1 construct: also called CD3 (CD3 epsilon)
T1 sequence (P07766 23-126): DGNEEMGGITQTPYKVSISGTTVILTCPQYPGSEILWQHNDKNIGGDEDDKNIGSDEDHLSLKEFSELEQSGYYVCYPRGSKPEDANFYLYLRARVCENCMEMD
Description: An appropriate amount of CD3 epsilon homodimer protein was immobilized onto Sensor chip CM4 (GE Healthcare Japan Corp.) by the amine coupling method. Then, the antibody having an appropriate concentration was injected thereto as an analyte and allowed to interact with the CD3 epsilon homodimer protein on the sensor chip. Then, the sensor chip was regenerated by the injection of 10 mmol/L glycine-HCl (pH 1.5). The assay was conducted at 25 degrees C., and HBS-EP+(GE Healthcare Japan Corp.) was used as a running buffer. […] Each parameter was calculated using Biacore T200 Evaluation Software (GE Healthcare Japan Corp.).

KD ratio to GLS3000	Binder
25.1	CE115HA000/GLS3000 L27bD (antibody, IgG1, name in Kabat numbering, V domains shown, one-arm IgG1) VH: QVQLVESGGGVVQPGRSLRLSCAASGFTFSNAWMHWVRQAPGKGLEWVAQIKAKSNNYATYYAESVKGRFTISRDDSKNSLYLQMNSLKTEDTAVYYCRYVHYGAYYGVDAWGQGTTVTVSS VL: DIVMTQSPLSLPVTPGEPASISCRSSQSDVHSNRNTYLHWYQQKPGQAPRLLIYKVSNRFSGVPDRFSGSGSGTDFTLKISRVEAEDVGVYYCGQGTQVPYTFGQGTKLEIK
0.9	CE115HA000/GLS3000 L27bS (antibody, IgG1, name in Kabat numbering, V domains shown, one-arm IgG1) VH: QVQLVESGGGVVQPGRSLRLSCAASGFTFSNAWMHWVRQAPGKGLEWVAQIKAKSNNYATYYAESVKGRFTISRDDSKNSLYLQMNSLKTEDTAVYYCRYVHYGAYYGVDAWGQGTTVTVSS VL: DIVMTQSPLSLPVTPGEPASISCRSSQSSVHSNRNTYLHWYQQKPGQAPRLLIYKVSNRFSGVPDRFSGSGSGTDFTLKISRVEAEDVGVYYCGQGTQVPYTFGQGTKLEIK
22.2	CE115HA000/GLS3000 L27bY (antibody, IgG1, name in Kabat numbering, V domains shown, one-arm IgG1) VH: QVQLVESGGGVVQPGRSLRLSCAASGFTFSNAWMHWVRQAPGKGLEWVAQIKAKSNNYATYYAESVKGRFTISRDDSKNSLYLQMNSLKTEDTAVYYCRYVHYGAYYGVDAWGQGTTVTVSS VL: DIVMTQSPLSLPVTPGEPASISCRSSQSYVHSNRNTYLHWYQQKPGQAPRLLIYKVSNRFSGVPDRFSGSGSGTDFTLKISRVEAEDVGVYYCGQGTQVPYTFGQGTKLEIK
2.59	CE115HA000/GLS3000 N28F (antibody, IgG1, name in Kabat numbering, V domains shown, one-arm IgG1) VH: QVQLVESGGGVVQPGRSLRLSCAASGFTFSNAWMHWVRQAPGKGLEWVAQIKAKSNNYATYYAESVKGRFTISRDDSKNSLYLQMNSLKTEDTAVYYCRYVHYGAYYGVDAWGQGTTVTVSS VL: DIVMTQSPLSLPVTPGEPASISCRSSQSLVHSFRNTYLHWYQQKPGQAPRLLIYKVSNRFSGVPDRFSGSGSGTDFTLKISRVEAEDVGVYYCGQGTQVPYTFGQGTKLEIK
32.9	CE115HA000/GLS3000 L33P (antibody, IgG1, name in Kabat numbering, V domains shown, one-arm IgG1) VH: QVQLVESGGGVVQPGRSLRLSCAASGFTFSNAWMHWVRQAPGKGLEWVAQIKAKSNNYATYYAESVKGRFTISRDDSKNSLYLQMNSLKTEDTAVYYCRYVHYGAYYGVDAWGQGTTVTVSS VL: DIVMTQSPLSLPVTPGEPASISCRSSQSLVHSNRNTYPHWYQQKPGQAPRLLIYKVSNRFSGVPDRFSGSGSGTDFTLKISRVEAEDVGVYYCGQGTQVPYTFGQGTKLEIK
1.31	CE115HA000/GLS3000 L27bM (antibody, IgG1, name in Kabat numbering, V domains shown, one-arm IgG1) VH: QVQLVESGGGVVQPGRSLRLSCAASGFTFSNAWMHWVRQAPGKGLEWVAQIKAKSNNYATYYAESVKGRFTISRDDSKNSLYLQMNSLKTEDTAVYYCRYVHYGAYYGVDAWGQGTTVTVSS VL: DIVMTQSPLSLPVTPGEPASISCRSSQSMVHSNRNTYLHWYQQKPGQAPRLLIYKVSNRFSGVPDRFSGSGSGTDFTLKISRVEAEDVGVYYCGQGTQVPYTFGQGTKLEIK
4.18	CE115HA000/GLS3000 N28A (antibody, IgG1, name in Kabat numbering, V domains shown, one-arm IgG1) VH: QVQLVESGGGVVQPGRSLRLSCAASGFTFSNAWMHWVRQAPGKGLEWVAQIKAKSNNYATYYAESVKGRFTISRDDSKNSLYLQMNSLKTEDTAVYYCRYVHYGAYYGVDAWGQGTTVTVSS VL: DIVMTQSPLSLPVTPGEPASISCRSSQSLVHSARNTYLHWYQQKPGQAPRLLIYKVSNRFSGVPDRFSGSGSGTDFTLKISRVEAEDVGVYYCGQGTQVPYTFGQGTKLEIK
2.67	CE115HA000/GLS3000 L27bF (antibody, IgG1, name in Kabat numbering, V domains shown, one-arm IgG1) VH: QVQLVESGGGVVQPGRSLRLSCAASGFTFSNAWMHWVRQAPGKGLEWVAQIKAKSNNYATYYAESVKGRFTISRDDSKNSLYLQMNSLKTEDTAVYYCRYVHYGAYYGVDAWGQGTTVTVSS VL: DIVMTQSPLSLPVTPGEPASISCRSSQSFVHSNRNTYLHWYQQKPGQAPRLLIYKVSNRFSGVPDRFSGSGSGTDFTLKISRVEAEDVGVYYCGQGTQVPYTFGQGTKLEIK
0.82	CE115HA000/GLS3000 L33A (antibody, IgG1, name in Kabat numbering, V domains shown, one-arm IgG1) VH: QVQLVESGGGVVQPGRSLRLSCAASGFTFSNAWMHWVRQAPGKGLEWVAQIKAKSNNYATYYAESVKGRFTISRDDSKNSLYLQMNSLKTEDTAVYYCRYVHYGAYYGVDAWGQGTTVTVSS VL: DIVMTQSPLSLPVTPGEPASISCRSSQSLVHSNRNTYAHWYQQKPGQAPRLLIYKVSNRFSGVPDRFSGSGSGTDFTLKISRVEAEDVGVYYCGQGTQVPYTFGQGTKLEIK
1.26	CE115HA000/GLS3000 L33V (antibody, IgG1, name in Kabat numbering, V domains shown, one-arm IgG1) VH: QVQLVESGGGVVQPGRSLRLSCAASGFTFSNAWMHWVRQAPGKGLEWVAQIKAKSNNYATYYAESVKGRFTISRDDSKNSLYLQMNSLKTEDTAVYYCRYVHYGAYYGVDAWGQGTTVTVSS VL: DIVMTQSPLSLPVTPGEPASISCRSSQSLVHSNRNTYVHWYQQKPGQAPRLLIYKVSNRFSGVPDRFSGSGSGTDFTLKISRVEAEDVGVYYCGQGTQVPYTFGQGTKLEIK
1.17	CE115HA000/GLS3000 L27bI (antibody, IgG1, name in Kabat numbering, V domains shown, one-arm IgG1) VH: QVQLVESGGGVVQPGRSLRLSCAASGFTFSNAWMHWVRQAPGKGLEWVAQIKAKSNNYATYYAESVKGRFTISRDDSKNSLYLQMNSLKTEDTAVYYCRYVHYGAYYGVDAWGQGTTVTVSS VL: DIVMTQSPLSLPVTPGEPASISCRSSQSIVHSNRNTYLHWYQQKPGQAPRLLIYKVSNRFSGVPDRFSGSGSGTDFTLKISRVEAEDVGVYYCGQGTQVPYTFGQGTKLEIK
0.65	CE115HA000/GLS3000 L33F (antibody, IgG1, name in Kabat numbering, V domains shown, one-arm IgG1) VH: QVQLVESGGGVVQPGRSLRLSCAASGFTFSNAWMHWVRQAPGKGLEWVAQIKAKSNNYATYYAESVKGRFTISRDDSKNSLYLQMNSLKTEDTAVYYCRYVHYGAYYGVDAWGQGTTVTVSS VL: DIVMTQSPLSLPVTPGEPASISCRSSQSLVHSNRNTYFHWYQQKPGQAPRLLIYKVSNRFSGVPDRFSGSGSGTDFTLKISRVEAEDVGVYYCGQGTQVPYTFGQGTKLEIK
1.11	CE115HA000/GLS3000 L27bV (antibody, IgG1, name in Kabat numbering, V domains shown, one-arm IgG1) VH: QVQLVESGGGVVQPGRSLRLSCAASGFTFSNAWMHWVRQAPGKGLEWVAQIKAKSNNYATYYAESVKGRFTISRDDSKNSLYLQMNSLKTEDTAVYYCRYVHYGAYYGVDAWGQGTTVTVSS VL: DIVMTQSPLSLPVTPGEPASISCRSSQSVVHSNRNTYLHWYQQKPGQAPRLLIYKVSNRFSGVPDRFSGSGSGTDFTLKISRVEAEDVGVYYCGQGTQVPYTFGQGTKLEIK
28.8	CE115HA000/GLS3000 L27bE (antibody, IgG1, name in Kabat numbering, V domains shown, one-arm IgG1) VH: QVQLVESGGGVVQPGRSLRLSCAASGFTFSNAWMHWVRQAPGKGLEWVAQIKAKSNNYATYYAESVKGRFTISRDDSKNSLYLQMNSLKTEDTAVYYCRYVHYGAYYGVDAWGQGTTVTVSS VL: DIVMTQSPLSLPVTPGEPASISCRSSQSEVHSNRNTYLHWYQQKPGQAPRLLIYKVSNRFSGVPDRFSGSGSGTDFTLKISRVEAEDVGVYYCGQGTQVPYTFGQGTKLEIK
0.96	CE115HA000/GLS3000 L27bP (antibody, IgG1, name in Kabat numbering, V domains shown, one-arm IgG1) VH: QVQLVESGGGVVQPGRSLRLSCAASGFTFSNAWMHWVRQAPGKGLEWVAQIKAKSNNYATYYAESVKGRFTISRDDSKNSLYLQMNSLKTEDTAVYYCRYVHYGAYYGVDAWGQGTTVTVSS VL: DIVMTQSPLSLPVTPGEPASISCRSSQSPVHSNRNTYLHWYQQKPGQAPRLLIYKVSNRFSGVPDRFSGSGSGTDFTLKISRVEAEDVGVYYCGQGTQVPYTFGQGTKLEIK
5.47	CE115HA000/GLS3000 N28E (antibody, IgG1, name in Kabat numbering, V domains shown, one-arm IgG1) VH: QVQLVESGGGVVQPGRSLRLSCAASGFTFSNAWMHWVRQAPGKGLEWVAQIKAKSNNYATYYAESVKGRFTISRDDSKNSLYLQMNSLKTEDTAVYYCRYVHYGAYYGVDAWGQGTTVTVSS VL: DIVMTQSPLSLPVTPGEPASISCRSSQSLVHSERNTYLHWYQQKPGQAPRLLIYKVSNRFSGVPDRFSGSGSGTDFTLKISRVEAEDVGVYYCGQGTQVPYTFGQGTKLEIK
23.6	CE115HA000/GLS3000 L27bW (antibody, IgG1, name in Kabat numbering, V domains shown, one-arm IgG1) VH: QVQLVESGGGVVQPGRSLRLSCAASGFTFSNAWMHWVRQAPGKGLEWVAQIKAKSNNYATYYAESVKGRFTISRDDSKNSLYLQMNSLKTEDTAVYYCRYVHYGAYYGVDAWGQGTTVTVSS VL: DIVMTQSPLSLPVTPGEPASISCRSSQSWVHSNRNTYLHWYQQKPGQAPRLLIYKVSNRFSGVPDRFSGSGSGTDFTLKISRVEAEDVGVYYCGQGTQVPYTFGQGTKLEIK
0.9	CE115HA000/GLS3000 L33M (antibody, IgG1, name in Kabat numbering, V domains shown, one-arm IgG1) VH: QVQLVESGGGVVQPGRSLRLSCAASGFTFSNAWMHWVRQAPGKGLEWVAQIKAKSNNYATYYAESVKGRFTISRDDSKNSLYLQMNSLKTEDTAVYYCRYVHYGAYYGVDAWGQGTTVTVSS VL: DIVMTQSPLSLPVTPGEPASISCRSSQSLVHSNRNTYMHWYQQKPGQAPRLLIYKVSNRFSGVPDRFSGSGSGTDFTLKISRVEAEDVGVYYCGQGTQVPYTFGQGTKLEIK
0.83	CE115HA000/GLS3000 L33E (antibody, IgG1, name in Kabat numbering, V domains shown, one-arm IgG1) VH: QVQLVESGGGVVQPGRSLRLSCAASGFTFSNAWMHWVRQAPGKGLEWVAQIKAKSNNYATYYAESVKGRFTISRDDSKNSLYLQMNSLKTEDTAVYYCRYVHYGAYYGVDAWGQGTTVTVSS VL: DIVMTQSPLSLPVTPGEPASISCRSSQSLVHSNRNTYEHWYQQKPGQAPRLLIYKVSNRFSGVPDRFSGSGSGTDFTLKISRVEAEDVGVYYCGQGTQVPYTFGQGTKLEIK
37.5	CE115HA000/GLS3000 L33D (antibody, IgG1, name in Kabat numbering, V domains shown, one-arm IgG1) VH: QVQLVESGGGVVQPGRSLRLSCAASGFTFSNAWMHWVRQAPGKGLEWVAQIKAKSNNYATYYAESVKGRFTISRDDSKNSLYLQMNSLKTEDTAVYYCRYVHYGAYYGVDAWGQGTTVTVSS VL: DIVMTQSPLSLPVTPGEPASISCRSSQSLVHSNRNTYDHWYQQKPGQAPRLLIYKVSNRFSGVPDRFSGSGSGTDFTLKISRVEAEDVGVYYCGQGTQVPYTFGQGTKLEIK
0.86	CE115HA000/GLS3000 L33I (antibody, IgG1, name in Kabat numbering, V domains shown, one-arm IgG1) VH: QVQLVESGGGVVQPGRSLRLSCAASGFTFSNAWMHWVRQAPGKGLEWVAQIKAKSNNYATYYAESVKGRFTISRDDSKNSLYLQMNSLKTEDTAVYYCRYVHYGAYYGVDAWGQGTTVTVSS VL: DIVMTQSPLSLPVTPGEPASISCRSSQSLVHSNRNTYIHWYQQKPGQAPRLLIYKVSNRFSGVPDRFSGSGSGTDFTLKISRVEAEDVGVYYCGQGTQVPYTFGQGTKLEIK
